T1: FcγRIIa H (human, UniProt P12318 34-217)
T1 construct: extracellular domain; also called FcγRIIa type H; 2aH
T1 sequence (looked up): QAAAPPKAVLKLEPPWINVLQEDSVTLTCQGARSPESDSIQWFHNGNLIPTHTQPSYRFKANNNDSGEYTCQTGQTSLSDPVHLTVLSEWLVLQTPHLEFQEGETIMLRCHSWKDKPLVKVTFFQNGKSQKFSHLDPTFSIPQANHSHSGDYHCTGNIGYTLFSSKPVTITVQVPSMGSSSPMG

T2: FcγRIIb (human, UniProt P31994 43-217)
T2 construct: extracellular domain; also called 2b; FcgRIIb
T2 sequence (looked up): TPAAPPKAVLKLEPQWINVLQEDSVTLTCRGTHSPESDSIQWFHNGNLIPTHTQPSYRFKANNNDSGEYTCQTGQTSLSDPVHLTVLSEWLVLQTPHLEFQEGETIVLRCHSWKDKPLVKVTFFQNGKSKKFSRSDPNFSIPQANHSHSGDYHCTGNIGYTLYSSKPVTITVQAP


How the values were obtained:
[1] = biological target: T1, FcγRIIa H; experiment: ratio of He/Con_2aH to He/Con_2b (FcγRIIb); SPR
[2] = biological target: T1, FcγRIIa H; experiment: SPR (Biacore), captured antibody, FcγR as analyte; GpH7-A5/GpH7-B3/GpL16-k0 = 100
Method: (§1) The heterodimerized antibodies He Abs in which one of the H chains was introduced with an alteration were assayed for their binding activities to each activating FcγR and inhibitory FcγR according to the method described in Example 4. […] The activating FcγRs in FIGS. 26, 27, 28, and 29 are FcγRIa, FcγRIIa (R), FcγRIIa (H), and FcγRIIIa, respectively.
(§2) Analysis of interaction between objective antibody and the FcγR was carried out using Biacore T100 (GE Healthcare). HBS-EP+ (GE Healthcare) was used as the running buffer, and the measurement temperature was set to 25° C. Chips produced by immobilizing the antigen peptide by the amine coupling method to a Series S Sencor Chip CM5 (GE Healthcare), or alternatively, chips produced by allowing preliminarily biotinylated antigen peptides to interact with and immobilize onto a Series S Sensor Chip SA (certified) (GE Healthcare) were used. Antibodies of interest were captured onto an antigen peptide-immobilized chip, and allowed to interact to each FcγR diluted with running buffer. To regenerate and repeatedly use the chip, the antibodies captured on the chip were washed off by reacting 10 mM glycine-HCl, pH 1.5.

[3] = biological target: T2, FcγRIIb; experiment: as above
Method: as §1, §2

He_2aH/2b (IIaH/IIb ratio) [1] | He/Con_2aH (relative binding) [2] [%] | He/Con_2b (relative binding) [3] [%] | Binder
1.51 | 71.5 | 47.2 | GpH7-A5/GpH7-B3 variant D270_16H/GpL16-k0 (antibody, human IgG1, kappa, Heterodimerized anti-glypican-3 IgG1 (He Ab); mutation in the B3 H chain only; also called He Ab) heavy 1: not shown heavy 2: not shown light: DIVMTQSPLSLPVTPGEPASISCQASESLVHSNRNTYLHWYLQKPGQSPQLLIYKVSNRFSGVPDRFSGSGSGTDFTLKISRVEAEDVGVYYCSQNTHVPPTFGQGTKVEIERTVAAPSVFIFPPSDEQLKSGTASVVCLLNNFYPREAKVQWKVDNALQSGNSQESVTEQDSKDSTYSLSSTLTLSKADYEKHKVYACEVTHQGLSSPVTKSFNRGEC
1.53 | 59 | 38.5 | GpH7-A5/GpH7-B3 variant E269_16H/GpL16-k0 (antibody, human IgG1, kappa, Heterodimerized anti-glypican-3 IgG1 (He Ab); mutation in the B3 H chain only; also called He Ab) heavy 1: not shown heavy 2: not shown light: DIVMTQSPLSLPVTPGEPASISCQASESLVHSNRNTYLHWYLQKPGQSPQLLIYKVSNRFSGVPDRFSGSGSGTDFTLKISRVEAEDVGVYYCSQNTHVPPTFGQGTKVEIERTVAAPSVFIFPPSDEQLKSGTASVVCLLNNFYPREAKVQWKVDNALQSGNSQESVTEQDSKDSTYSLSSTLTLSKADYEKHKVYACEVTHQGLSSPVTKSFNRGEC
1.77 | 85 | 48 | GpH7-A5/GpH7-B3 variant D270_19Q/GpL16-k0 (antibody, human IgG1, kappa, Heterodimerized anti-glypican-3 IgG1 (He Ab); mutation in the B3 H chain only; also called He Ab) heavy 1: not shown heavy 2: not shown light: DIVMTQSPLSLPVTPGEPASISCQASESLVHSNRNTYLHWYLQKPGQSPQLLIYKVSNRFSGVPDRFSGSGSGTDFTLKISRVEAEDVGVYYCSQNTHVPPTFGQGTKVEIERTVAAPSVFIFPPSDEQLKSGTASVVCLLNNFYPREAKVQWKVDNALQSGNSQESVTEQDSKDSTYSLSSTLTLSKADYEKHKVYACEVTHQGLSSPVTKSFNRGEC
1.56 | 77.8 | 49.9 | GpH7-A5/GpH7-B3 variant E269_02A/GpL16-k0 (antibody, human IgG1, kappa, Heterodimerized anti-glypican-3 IgG1 (He Ab); mutation in the B3 H chain only; also called He Ab) heavy 1: not shown heavy 2: not shown light: DIVMTQSPLSLPVTPGEPASISCQASESLVHSNRNTYLHWYLQKPGQSPQLLIYKVSNRFSGVPDRFSGSGSGTDFTLKISRVEAEDVGVYYCSQNTHVPPTFGQGTKVEIERTVAAPSVFIFPPSDEQLKSGTASVVCLLNNFYPREAKVQWKVDNALQSGNSQESVTEQDSKDSTYSLSSTLTLSKADYEKHKVYACEVTHQGLSSPVTKSFNRGEC
1.49 | 67.5 | 45.1 | GpH7-A5/GpH7-B3 variant E269_03V/GpL16-k0 (antibody, human IgG1, kappa, Heterodimerized anti-glypican-3 IgG1 (He Ab); mutation in the B3 H chain only; also called He Ab) heavy 1: not shown heavy 2: not shown light: DIVMTQSPLSLPVTPGEPASISCQASESLVHSNRNTYLHWYLQKPGQSPQLLIYKVSNRFSGVPDRFSGSGSGTDFTLKISRVEAEDVGVYYCSQNTHVPPTFGQGTKVEIERTVAAPSVFIFPPSDEQLKSGTASVVCLLNNFYPREAKVQWKVDNALQSGNSQESVTEQDSKDSTYSLSSTLTLSKADYEKHKVYACEVTHQGLSSPVTKSFNRGEC
1.57 | 70.4 | 44.7 | GpH7-A5/GpH7-B3 variant E269_15Y/GpL16-k0 (antibody, human IgG1, kappa, Heterodimerized anti-glypican-3 IgG1 (He Ab); mutation in the B3 H chain only; also called He Ab) heavy 1: not shown heavy 2: not shown light: DIVMTQSPLSLPVTPGEPASISCQASESLVHSNRNTYLHWYLQKPGQSPQLLIYKVSNRFSGVPDRFSGSGSGTDFTLKISRVEAEDVGVYYCSQNTHVPPTFGQGTKVEIERTVAAPSVFIFPPSDEQLKSGTASVVCLLNNFYPREAKVQWKVDNALQSGNSQESVTEQDSKDSTYSLSSTLTLSKADYEKHKVYACEVTHQGLSSPVTKSFNRGEC
1.46 | 70 | 47.8 | GpH7-A5/GpH7-B3 variant E269_13S/GpL16-k0 (antibody, human IgG1, kappa, Heterodimerized anti-glypican-3 IgG1 (He Ab); mutation in the B3 H chain only; also called He Ab) heavy 1: not shown heavy 2: not shown light: DIVMTQSPLSLPVTPGEPASISCQASESLVHSNRNTYLHWYLQKPGQSPQLLIYKVSNRFSGVPDRFSGSGSGTDFTLKISRVEAEDVGVYYCSQNTHVPPTFGQGTKVEIERTVAAPSVFIFPPSDEQLKSGTASVVCLLNNFYPREAKVQWKVDNALQSGNSQESVTEQDSKDSTYSLSSTLTLSKADYEKHKVYACEVTHQGLSSPVTKSFNRGEC
2.87 | 51.1 | 17.8 | GpH7-A5/GpH7-B3 variant E269_11K/GpL16-k0 (antibody, human IgG1, kappa, Heterodimerized anti-glypican-3 IgG1 (He Ab); mutation in the B3 H chain only; also called He Ab) heavy 1: not shown heavy 2: not shown light: DIVMTQSPLSLPVTPGEPASISCQASESLVHSNRNTYLHWYLQKPGQSPQLLIYKVSNRFSGVPDRFSGSGSGTDFTLKISRVEAEDVGVYYCSQNTHVPPTFGQGTKVEIERTVAAPSVFIFPPSDEQLKSGTASVVCLLNNFYPREAKVQWKVDNALQSGNSQESVTEQDSKDSTYSLSSTLTLSKADYEKHKVYACEVTHQGLSSPVTKSFNRGEC
1.74 | 60.2 | 34.7 | GpH7-A5/GpH7-B3 variant D270_20W/GpL16-k0 (antibody, human IgG1, kappa, Heterodimerized anti-glypican-3 IgG1 (He Ab); mutation in the B3 H chain only; also called He Ab) heavy 1: not shown heavy 2: not shown light: DIVMTQSPLSLPVTPGEPASISCQASESLVHSNRNTYLHWYLQKPGQSPQLLIYKVSNRFSGVPDRFSGSGSGTDFTLKISRVEAEDVGVYYCSQNTHVPPTFGQGTKVEIERTVAAPSVFIFPPSDEQLKSGTASVVCLLNNFYPREAKVQWKVDNALQSGNSQESVTEQDSKDSTYSLSSTLTLSKADYEKHKVYACEVTHQGLSSPVTKSFNRGEC
1.52 | 66.6 | 43.9 | GpH7-A5/GpH7-B3 variant E269_07I/GpL16-k0 (antibody, human IgG1, kappa, Heterodimerized anti-glypican-3 IgG1 (He Ab); mutation in the B3 H chain only; also called He Ab) heavy 1: not shown heavy 2: not shown light: DIVMTQSPLSLPVTPGEPASISCQASESLVHSNRNTYLHWYLQKPGQSPQLLIYKVSNRFSGVPDRFSGSGSGTDFTLKISRVEAEDVGVYYCSQNTHVPPTFGQGTKVEIERTVAAPSVFIFPPSDEQLKSGTASVVCLLNNFYPREAKVQWKVDNALQSGNSQESVTEQDSKDSTYSLSSTLTLSKADYEKHKVYACEVTHQGLSSPVTKSFNRGEC
1.86 | 46.8 | 25.2 | GpH7-A5/GpH7-B3 variant E269_12R/GpL16-k0 (antibody, human IgG1, kappa, Heterodimerized anti-glypican-3 IgG1 (He Ab); mutation in the B3 H chain only; also called He Ab) heavy 1: not shown heavy 2: not shown light: DIVMTQSPLSLPVTPGEPASISCQASESLVHSNRNTYLHWYLQKPGQSPQLLIYKVSNRFSGVPDRFSGSGSGTDFTLKISRVEAEDVGVYYCSQNTHVPPTFGQGTKVEIERTVAAPSVFIFPPSDEQLKSGTASVVCLLNNFYPREAKVQWKVDNALQSGNSQESVTEQDSKDSTYSLSSTLTLSKADYEKHKVYACEVTHQGLSSPVTKSFNRGEC
1.37 | 69.6 | 50.6 | GpH7-A5/GpH7-B3 variant E269_14T/GpL16-k0 (antibody, human IgG1, kappa, Heterodimerized anti-glypican-3 IgG1 (He Ab); mutation in the B3 H chain only; also called He Ab) heavy 1: not shown heavy 2: not shown light: DIVMTQSPLSLPVTPGEPASISCQASESLVHSNRNTYLHWYLQKPGQSPQLLIYKVSNRFSGVPDRFSGSGSGTDFTLKISRVEAEDVGVYYCSQNTHVPPTFGQGTKVEIERTVAAPSVFIFPPSDEQLKSGTASVVCLLNNFYPREAKVQWKVDNALQSGNSQESVTEQDSKDSTYSLSSTLTLSKADYEKHKVYACEVTHQGLSSPVTKSFNRGEC
1.58 | 73.6 | 46.7 | GpH7-A5/GpH7-B3 variant E269_06M/GpL16-k0 (antibody, human IgG1, kappa, Heterodimerized anti-glypican-3 IgG1 (He Ab); mutation in the B3 H chain only; also called He Ab) heavy 1: not shown heavy 2: not shown light: DIVMTQSPLSLPVTPGEPASISCQASESLVHSNRNTYLHWYLQKPGQSPQLLIYKVSNRFSGVPDRFSGSGSGTDFTLKISRVEAEDVGVYYCSQNTHVPPTFGQGTKVEIERTVAAPSVFIFPPSDEQLKSGTASVVCLLNNFYPREAKVQWKVDNALQSGNSQESVTEQDSKDSTYSLSSTLTLSKADYEKHKVYACEVTHQGLSSPVTKSFNRGEC
1.52 | 68.5 | 45 | GpH7-A5/GpH7-B3 variant E269_04F/GpL16-k0 (antibody, human IgG1, kappa, Heterodimerized anti-glypican-3 IgG1 (He Ab); mutation in the B3 H chain only; also called He Ab) heavy 1: not shown heavy 2: not shown light: DIVMTQSPLSLPVTPGEPASISCQASESLVHSNRNTYLHWYLQKPGQSPQLLIYKVSNRFSGVPDRFSGSGSGTDFTLKISRVEAEDVGVYYCSQNTHVPPTFGQGTKVEIERTVAAPSVFIFPPSDEQLKSGTASVVCLLNNFYPREAKVQWKVDNALQSGNSQESVTEQDSKDSTYSLSSTLTLSKADYEKHKVYACEVTHQGLSSPVTKSFNRGEC
1.55 | 62.5 | 40.3 | GpH7-A5/GpH7-B3 variant D270_18N/GpL16-k0 (antibody, human IgG1, kappa, Heterodimerized anti-glypican-3 IgG1 (He Ab); mutation in the B3 H chain only; also called He Ab) heavy 1: not shown heavy 2: not shown light: DIVMTQSPLSLPVTPGEPASISCQASESLVHSNRNTYLHWYLQKPGQSPQLLIYKVSNRFSGVPDRFSGSGSGTDFTLKISRVEAEDVGVYYCSQNTHVPPTFGQGTKVEIERTVAAPSVFIFPPSDEQLKSGTASVVCLLNNFYPREAKVQWKVDNALQSGNSQESVTEQDSKDSTYSLSSTLTLSKADYEKHKVYACEVTHQGLSSPVTKSFNRGEC
1.57 | 67.4 | 42.9 | GpH7-A5/GpH7-B3 variant E269_08L/GpL16-k0 (antibody, human IgG1, kappa, Heterodimerized anti-glypican-3 IgG1 (He Ab); mutation in the B3 H chain only; also called He Ab) heavy 1: not shown heavy 2: not shown light: DIVMTQSPLSLPVTPGEPASISCQASESLVHSNRNTYLHWYLQKPGQSPQLLIYKVSNRFSGVPDRFSGSGSGTDFTLKISRVEAEDVGVYYCSQNTHVPPTFGQGTKVEIERTVAAPSVFIFPPSDEQLKSGTASVVCLLNNFYPREAKVQWKVDNALQSGNSQESVTEQDSKDSTYSLSSTLTLSKADYEKHKVYACEVTHQGLSSPVTKSFNRGEC

— US20150344570A1 (published 2015)
